The source of these data is patent publication US20240287172A1 (SCIRHOM, published 2024).

Test [1] concerns the target T1, hiR2-FL-M534-T7 (deletion of M534) (human, UniProt Q6PJF5 1-856).
T1 construct: single amino acid deletion
T1 sequence: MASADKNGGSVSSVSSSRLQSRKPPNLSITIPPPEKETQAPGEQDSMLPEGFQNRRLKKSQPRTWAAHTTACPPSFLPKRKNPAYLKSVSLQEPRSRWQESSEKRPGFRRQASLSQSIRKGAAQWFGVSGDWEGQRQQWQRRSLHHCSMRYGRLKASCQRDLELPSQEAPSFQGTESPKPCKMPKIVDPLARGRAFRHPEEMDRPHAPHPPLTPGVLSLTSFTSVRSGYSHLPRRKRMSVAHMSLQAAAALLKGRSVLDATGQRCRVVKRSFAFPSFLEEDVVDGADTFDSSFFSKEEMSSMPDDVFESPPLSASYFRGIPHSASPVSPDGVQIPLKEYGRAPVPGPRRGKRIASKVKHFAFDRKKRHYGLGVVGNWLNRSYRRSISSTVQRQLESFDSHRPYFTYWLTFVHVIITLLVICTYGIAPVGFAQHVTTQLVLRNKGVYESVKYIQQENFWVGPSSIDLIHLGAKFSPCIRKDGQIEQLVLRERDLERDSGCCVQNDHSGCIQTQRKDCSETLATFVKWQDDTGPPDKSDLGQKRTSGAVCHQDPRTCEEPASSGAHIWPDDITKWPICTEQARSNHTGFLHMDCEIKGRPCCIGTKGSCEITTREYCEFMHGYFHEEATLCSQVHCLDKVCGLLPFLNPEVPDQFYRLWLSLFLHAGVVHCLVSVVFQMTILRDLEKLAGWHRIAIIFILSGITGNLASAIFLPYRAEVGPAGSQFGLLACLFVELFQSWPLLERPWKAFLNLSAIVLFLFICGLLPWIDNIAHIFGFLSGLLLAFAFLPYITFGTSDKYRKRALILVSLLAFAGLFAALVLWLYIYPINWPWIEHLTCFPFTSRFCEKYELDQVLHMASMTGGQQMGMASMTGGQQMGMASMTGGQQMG
Description: FACS on MEF-DKO cells.

In test [2] the target is T2, hiR2-FL-T544P-T7 (human, UniProt Q6PJF5 1-856).
T2 sequence: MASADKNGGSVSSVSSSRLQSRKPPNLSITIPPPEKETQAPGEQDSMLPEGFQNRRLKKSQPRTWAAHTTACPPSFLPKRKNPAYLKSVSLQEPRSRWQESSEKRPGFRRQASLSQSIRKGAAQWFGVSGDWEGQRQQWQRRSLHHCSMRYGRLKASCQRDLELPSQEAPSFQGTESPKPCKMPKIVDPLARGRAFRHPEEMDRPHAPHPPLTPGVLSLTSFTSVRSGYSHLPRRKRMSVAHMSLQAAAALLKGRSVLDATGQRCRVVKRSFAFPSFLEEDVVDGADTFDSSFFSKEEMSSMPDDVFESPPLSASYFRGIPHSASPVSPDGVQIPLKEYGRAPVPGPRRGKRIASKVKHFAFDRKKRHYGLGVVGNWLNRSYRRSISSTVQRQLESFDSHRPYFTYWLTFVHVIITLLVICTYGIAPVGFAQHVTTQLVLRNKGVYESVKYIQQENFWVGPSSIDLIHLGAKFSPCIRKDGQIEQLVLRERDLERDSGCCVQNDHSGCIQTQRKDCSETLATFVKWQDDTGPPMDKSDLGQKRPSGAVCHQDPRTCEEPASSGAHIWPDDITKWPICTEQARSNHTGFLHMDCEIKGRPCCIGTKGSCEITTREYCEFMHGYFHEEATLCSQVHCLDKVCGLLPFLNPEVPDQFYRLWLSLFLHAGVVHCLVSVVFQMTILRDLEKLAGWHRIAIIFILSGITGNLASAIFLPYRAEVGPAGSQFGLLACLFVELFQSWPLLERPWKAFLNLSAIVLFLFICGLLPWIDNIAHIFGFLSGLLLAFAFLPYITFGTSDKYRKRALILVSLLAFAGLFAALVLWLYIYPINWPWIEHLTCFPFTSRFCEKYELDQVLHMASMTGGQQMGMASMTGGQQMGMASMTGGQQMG
Description: FACS, MEF-DKO cells, 3 µg/ml. From the text: In brief, immortalized MEF-DKO-hiR2-FL-WT-T7 cells, MEF-DKO-miR2-FL-WT-T7 cells and MEF-DKO-hiR2-FL-R441K-T7, MEF-DKO-hiR2-FL-K443R-T7, MEF-DKO-hiR2-FL-V459I-T7, MEF-DKO-hiR2-FL-G481Q-T7, MEF-DKO-hiR2-FL-L488R-T7, MEF-DKO-hiR2-FL-L493I-T7, MEF-DKO-hiR2-FL-D496T-T7, MEF-DKO-hiR2-FL-H505R-T7, MEF-DKO-hiR2-FL-Q512L-T7, MEF-DKO-hiR2-FL- R513K-T7, MEF-DKO-hiR2-FL-D528N-T7, MEF-DKO-hiR2-FL-P533-T7, MEF-DKO-hiR2-FL-M534S-T7, MEF-DKO-hiR2-FL-G540S-T7, MEF-DKO-hiR2-FL-R543Q-T7, MEF-DKO-hiR2-FL-T544P-T7, MEF-DKO-hiR2-FL-G546A-T7, MEF-DKO-hiR2-FL-A547V-T7, MEF-DKO-hiR2-FL-R582Q-T7, MEF-DKO-hiR2-FL-F588L-T7, MEF-DKO-hiR2-FL-M591I-T7, MEF-DKO-hiR2-FL-E594K-T7, MEF-DKO-hiR2-FL-E626D-T7, MEF-DKO-hiR2-FL-L657I-T7, and MEF-DKO-hiR2-FL-H835Y-T7 cells were harvested with 10 mM EDTA in PBS, washed and resuspended in FACS buffer (PBS, 3% FBS, 0.05% sodium azide), and seeded in Nunc U-bottom 96-well plates (Thermo Fisher Scientific, USA) at approximately 3×10⁵ cells per well.
To pellet cells and remove supernatants, the plates were centrifuged at 1,500 rpm and 4° C. for 3 minutes. For primary staining, cells were resuspended in 100 μl per well of either FACS buffer alone (controls) or the purified antibodies 3, 5, 16, 22, 34, 42, 43, 44, 48, and 50 of the invention at 3 μg/ml FACS buffer and incubated on ice for 1 hour. Afterwards, plates were centrifuged at 1,500 rpm and 4° C. for 3 minutes and washed twice with 200 μl per well of FACS buffer. For secondary staining, cells were spun down and resuspended in 100 μl per well of PE-conjugated goat anti-mouse IgG F(ab′)2 detection fragment (Dianova, Germany) diluted 1:100 in FACS buffer. Protected from light, the cell suspensions were incubated on ice for 1 hour. Plates were then centrifuged at 1,500 rpm and 4° C. for 3 minutes and washed three times with 200 μl per well of FACS buffer. Finally, cells were resuspended in 150 μl per well of FACS buffer and analyzed using a BD Accuri™ C6 Plus flow cytometer (Becton Dickinson, Germany).
For orientation: A flow cytometer gives signals particle by particle.

Substitutions are numbered along the chain they refer to.

B1: antibody 34 (antibody, V domains shown)
VH: QVTLKESGPGILQPSQTLSLTCSFSGFSLSTFSLGVGWIRQSSGKGLEWLAHIWWDDEKYYNPALKSRLTISKDTSKNQVFLKIANVDAADTATYYCARAYYSKSYYALDYWGQGTSVTVSS
VL: DIQMTQSPSSLSASLGERVSLTCRASQEISGYLSWLQQKPDGTIKRLIYAASTLDSGVPKRFSGSRSGSDYSLAISSLESEDFADYYCLQYANFPFTFGSGTKLEIK
notes: mouse IgG, kappa light chain; also called clone #34; purified antibody 34
With B1, the binding result in test [1] was “no binding (tested: 3 µg/ml)”. In test [2], the “loss of binding vs wild type” value is at least 60%.

B2: antibody 16 (antibody, V domains shown)
VH: QVTLKESGPGILQPSQTLSLTCSFSGFSLSTFALGVGWIRQPSGRGLEWLAHIWWDDDKYYNPALKSRLTISKDTSKNHVFLKIANVDTADTATYYCARITTYYYGMDYWGQGTSVTVSS
VL: DIVLSQSPATLSVTPGDSVSLFCRASQSIGNHLHWYQQESHASPRLLIKYASQSISGIPSRFSGSGSGTDFTLSINSVETEDFGMYFCQQSYNWPLTFGAGTKLELK
notes: mouse IgG, kappa light chain; also called clone #16; purified antibody 16
On to B2, for which the binding result in test [1] was “no binding (tested: 3 µg/ml)”.

B3: antibody 3 (antibody, V domains shown)
VH: QVTLKESGPGILQPSQTLSLTCSFSGFSLTTFAMGIGWVRQPSGKGLEWLAHIWWDGEKYNNPVLKSRLTISKDTSKNQVFLRIANVDTPDTATYYCARISSIYYIIDNWGQGTSVTVSS
VL: B2 VL with S5T, D17H, F22S, G30S, H32N, Q38K, E39K, A42E, A51V
notes: mouse IgG, kappa light chain; also called clone #3; purified antibody 3
For the molecule B3, in test [1], the binding result was “no binding (tested: 3 µg/ml)”. Also, the “loss of binding vs wild type” value in test [2] is at least 60%.

B4: antibody 5 (antibody, V domains shown)
VH: QVTLKESGPGILQPSQTLSLTCSFSGFSLSTFGMGVGWIRQPSGKGLEWLAHIWWDDEKYYNSALKSRLTISKATSKNQAFLKIANVDTADTATYYCARISNYGSNYWYFNVWGTGTTVTVSS
VL: QVVLTQSPALMSASPGEKVTMTCSAGSSVSCMYWYQQKPGSSPRVLIYDTSNLASGVPARFTGSGSGTSYSLTISRMEAEDAASYYCQQWNSYPLTFGAGTKLELK
notes: mouse IgG, kappa light chain; also called clone #5; purified antibody 5
Regarding B4, the binding result in test [1] is reported as “no binding (tested: 3 µg/ml)”. The “loss of binding vs wild type” value in test [2] is at least 60%.

B5: antibody 43 (antibody, V domains shown)
VH: B4 VH with T3A, P42S, H52N, E58D, S63P, A74D, T75A, S101G, N111D
VL: QIVLTQSPAIMSASPGERVTMTCSANSRISYMYWYQQKPGSSPRLLIYDTSNLASGVPVRFSGSGSGTSYSLTISRMEAEDAATYNCQQWSSYPLTFGAGTKLELK
notes: mouse IgG, kappa light chain; also called clone #43; purified antibody 43
With B5, the binding result in test [1] was “no binding (tested: 3 µg/ml)”. For the same molecule, the “loss of binding vs wild type” value in test [2] was at least 60%.

B6: antibody 42 (antibody, V domains shown)
VH: B4 VH with F24L, M34R, S63P, A74D, A80V, K83R, S101Q, N111D
VL: B5 VL with Q1L, R18K, S24G, N26T, Y33F, L45V, M77V, A82V, N86Y, S91N
notes: mouse IgG, kappa light chain; also called clone #42; purified antibody 42
As to B6, the binding result in test [1] is “no binding (tested: 3 µg/ml)”. The “loss of binding vs wild type” value in test [2] is at least 60%.

B7: antibody 44 (antibody, V domains shown)
VH: B4 VH with G44E, E58D, S63P, A74D, A80I, A85T, D91E, A98S, S101G, N111D
VL: QIVLTQSPAVMSASPGEKVTMTCTASSSVYYMYWYQQTPGSSPRLLIYDTSNLASGVPVRFSGSGSGTSYSLTISRMEAEDAATYYCQQWNTYPLTFGAGTKLELK
notes: mouse IgG, kappa light chain; also called clone #44; purified antibody 44
B7: the binding result in test [1] is given as “no binding (tested: 3 µg/ml)”. Moreover, the “loss of binding vs wild type” value in test [2] is at least 30%.

B8: antibody 22 (antibody, V domains shown)
VH: B4 VH with A80V
VL: B4 VL with C31Y, S84T
notes: mouse IgG, kappa light chain; also called clone #22; purified antibody 22
As to B8, the binding result in test [1] is listed as “no binding (tested: 3 µg/ml)”. In test [2], the “loss of binding vs wild type” value was at least 30%.

B9: antibody 48 (antibody, V domains shown)
VH: QVQLQQSGTELVRPGTSVKVSCKASGYAFTNYLIEWVKQRPGQGLEWIGVINPGSGFTKYNEKFKGKATLTADKSSSTVYMHLSSLTSEDSAVYFCARGLYRAMDYWGQGTSVTVSS
VL: DIQMTQSPASQSASLGESVTITCLASQTIATWLAWYQQKPGKSPQLLIYGATTLADGVPSRFSGGGSGTKFSFKISSLQAEDFVSYYCQQLYSTPYTFGGGTKLEIK
notes: mouse IgG, kappa light chain; also called clone #48; purified antibody 48
As to B9, in test [2], the “loss of binding vs wild type” value was at least 30%.

B10: antibody 50 (antibody, V domains shown)
VH: B9 VH with T9A, T16A, T30S, V79A, H82Q
VL: B9 VL with A30G, G50A, T52A, T53S, S85N, L91I
notes: mouse IgG, kappa light chain; also called clone #50; purified antibody 50
In the case of B10, the “loss of binding vs wild type” value in test [2] is at least 30%.
